Data from the supplement of paper PMC10567573.

B1: ALDH8A1 (parent)
chain: FTGSQPTAERITQLSAPHCKKLSL

Variants of: B1
Experiment: protein stability index of a GFP-peptide fusion (GPS, HEK-293T) (PSI 1-6); higher = more stable
Conditions: c terminus: a fixed tail appended
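Further: lentivirally expressed fusions sorted by FACS into six bins by GFP to DsRed ratio, PSI derived from sequencing read proportions per bin multiplied by bin number.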

Row | Variant | protein stability index
1 | FTGSQYTAERITQLSAPHCKKLSL | 1.92
2 | FTGSQSTAERITQLSAPHCKKLSL | 2.1
3 | FTGSQITAERITQLSAPHCKKLSL | 2.07
4 | FTGSQTTAERITQLSAPHCKKLSL | 1.77
5 | FTGSQNTAERITQLSAPHCKKLSL | 2.71
6 | FTGSQLTAERITQLSAPHCKKLSL | 2.04
7 | FTGSQQTAERITQLSAPHCKKLSL | 2.38
8 | FTGSQVTAERITQLSAPHCKKLSL | 2.07
9 | FTGSQFTAERITQLSAPHCKKLSL | 1.9
10 | FTGSQWTAERITQLSAPHCKKLSL | 3.07
11 | FTGSQATAERITQLSAPHCKKLSL | 1.94
12 | FTGSQHTAERITQLSAPHCKKLSL | 2.25
13 | FTGSQRTAERITQLSAPHCKKLSL | 2.15
14 | FTGSQGTAERITQLSAPHCKKLSL | 1.96
15 | FTGSQETAERITQLSAPHCKKLSL | 2.79
16 | FTGSQKTAERITQLSAPHCKKLSL | 2.7
17 | FTGSQDTAERITQLSAPHCKKLSL | 2.43
18 | FTGSQCTAERITQLSAPHCKKLSL | 2.42
19 | FTQSQPTAERITQLSAPHCKKLSL | 2.38
20 | FTNSQPTAERITQLSAPHCKKLSL | 2.62
21 | FTHSQPTAERITQLSAPHCKKLSL | 2.4
22 | FTCSQPTAERITQLSAPHCKKLSL | 2.68
23 | FTTSQPTAERITQLSAPHCKKLSL | 2.69
24 | FTRSQPTAERITQLSAPHCKKLSL | 2.71

Row | Variant | protein stability index
25 | FTLSQPTAERITQLSAPHCKKLSL | 2.6
26 | FTMSQPTAERITQLSAPHCKKLSL | 2.56
27 | FTDSQPTAERITQLSAPHCKKLSL | 3.15
28 | FTSSQPTAERITQLSAPHCKKLSL | 2.65
29 | FTVSQPTAERITQLSAPHCKKLSL | 2.44
30 | FTASQPTAERITQLSAPHCKKLSL | 2.88
31 | FTPSQPTAERITQLSAPHCKKLSL | 2.07
32 | FTESQPTAERITQLSAPHCKKLSL | 3.56
33 | FTYSQPTAERITQLSAPHCKKLSL | 2.54
34 | FTWSQPTAERITQLSAPHCKKLSL | 2.66
35 | FTKSQPTAERITQLSAPHCKKLSL | 3.45
36 | FTISQPTAERITQLSAPHCKKLSL | 2.77
37 | FTFSQPTAERITQLSAPHCKKLSL | 1.97
38 | FTGWQPTAERITQLSAPHCKKLSL | 3.16
39 | FTGRQPTAERITQLSAPHCKKLSL | 1.62
40 | FTGNQPTAERITQLSAPHCKKLSL | 2.21
41 | FTGCQPTAERITQLSAPHCKKLSL | 2.31
42 | FTGHQPTAERITQLSAPHCKKLSL | 2.59
43 | FTGQQPTAERITQLSAPHCKKLSL | 2.02
44 | FTGMQPTAERITQLSAPHCKKLSL | 1.98
45 | FTGPQPTAERITQLSAPHCKKLSL | 2.67
46 | FTGAQPTAERITQLSAPHCKKLSL | 2.56
47 | FTGKQPTAERITQLSAPHCKKLSL | 2.6
48 | FTGLQPTAERITQLSAPHCKKLSL | 2.1

Row | Variant | protein stability index
49 | FTGTQPTAERITQLSAPHCKKLSL | 2.69
50 | FTGEQPTAERITQLSAPHCKKLSL | 3.18
51 | FTGDQPTAERITQLSAPHCKKLSL | 3.06
52 | FTGFQPTAERITQLSAPHCKKLSL | 2.03
53 | FTGGQPTAERITQLSAPHCKKLSL | 1.7
54 | FTGVQPTAERITQLSAPHCKKLSL | 2.75
55 | FTGIQPTAERITQLSAPHCKKLSL | 2.36
56 | FTGYQPTAERITQLSAPHCKKLSL | 2.22
57 | FMGSQPTAERITQLSAPHCKKLSL | 3.07
58 | FAGSQPTAERITQLSAPHCKKLSL | 2.38
59 | FWGSQPTAERITQLSAPHCKKLSL | 2.53
60 | FYGSQPTAERITQLSAPHCKKLSL | 3.35
61 | FQGSQPTAERITQLSAPHCKKLSL | 3.24
62 | FLGSQPTAERITQLSAPHCKKLSL | 2.74
63 | FGGSQPTAERITQLSAPHCKKLSL | 3.19
64 | FHGSQPTAERITQLSAPHCKKLSL | 2.2
65 | FKGSQPTAERITQLSAPHCKKLSL | 3.42
66 | FDGSQPTAERITQLSAPHCKKLSL | 3.95
67 | FIGSQPTAERITQLSAPHCKKLSL | 2.07
68 | FEGSQPTAERITQLSAPHCKKLSL | 3.86
69 | FSGSQPTAERITQLSAPHCKKLSL | 3.11
70 | FRGSQPTAERITQLSAPHCKKLSL | 3.37
71 | FNGSQPTAERITQLSAPHCKKLSL | 3.41
72 | FPGSQPTAERITQLSAPHCKKLSL | 3.41

Row | Variant | protein stability index
73 | FVGSQPTAERITQLSAPHCKKLSL | 1.02
74 | FCGSQPTAERITQLSAPHCKKLSL | 1.86
75 | FFGSQPTAERITQLSAPHCKKLSL | 2.89
76 | FTGSSPTAERITQLSAPHCKKLSL | 3.01
77 | FTGSKPTAERITQLSAPHCKKLSL | 2.06
78 | FTGSFPTAERITQLSAPHCKKLSL | 1.68
79 | FTGSWPTAERITQLSAPHCKKLSL | 4.02
80 | FTGSPPTAERITQLSAPHCKKLSL | 2.99
81 | FTGSTPTAERITQLSAPHCKKLSL | 2.24
82 | FTGSCPTAERITQLSAPHCKKLSL | 2.45
83 | FTGSYPTAERITQLSAPHCKKLSL | 2.36
84 | FTGSLPTAERITQLSAPHCKKLSL | 1.65
85 | FTGSHPTAERITQLSAPHCKKLSL | 2.14
86 | FTGSMPTAERITQLSAPHCKKLSL | 2.19
87 | FTGSEPTAERITQLSAPHCKKLSL | 2.57
88 | FTGSNPTAERITQLSAPHCKKLSL | 2.33
89 | FTGSAPTAERITQLSAPHCKKLSL | 2.08
90 | FTGSGPTAERITQLSAPHCKKLSL | 2.15
91 | FTGSVPTAERITQLSAPHCKKLSL | 2.38
92 | FTGSIPTAERITQLSAPHCKKLSL | 2.39
93 | FTGSRPTAERITQLSAPHCKKLSL | 2.39
94 | FTGSDPTAERITQLSAPHCKKLSL | 2.19
